# Experimental data published in PMC3086075.
# Biological target: recombinant class C acid phosphatase from Pasteurella multocida (Pasteurella multocida)
# Experiment: AUC
substance,measurement,value
recombinant class C acid phosphatase from Pasteurella multocida (enzyme),stoichiometry N,2
